Assay results from US20200339680A1.

Columns and labels:
human TMEM106B (human) [1] = biological target: human TMEM106B (human) (UniProt Q9NUM4); assay: FACS A549
human TMEM106B (human) [2] = biological target: human TMEM106B (human) (UniProt Q9NUM4); assay: FACS HeLa
human TMEM106B (human) [3] = biological target: human TMEM106B (human) (UniProt Q9NUM4); assay: FACS U251
mouse TMEM106B (mouse) [4] = biological target: mouse TMEM106B (mouse) (UniProt Q80X71); assay: FACS Neuro2a
human TMEM106B (human) [5] = biological target: human TMEM106B (human) (UniProt Q9NUM4); assay: FACS A549 1 ug/ml
human TMEM106B (human) [6] = biological target: human TMEM106B (human) (UniProt Q9NUM4); assay: FACS A549 10 ug/ml
human TMEM106B (human) [7] = biological target: human TMEM106B (human) (UniProt Q9NUM4); assay: FACS, transfected HEK293
mouse TMEM106B (mouse) [8] = biological target: mouse TMEM106B (mouse) (UniProt Q80X71); assay: FACS, transfected HEK293
human TMEM106B (human) [9] = biological target: human TMEM106B (human) (UniProt Q9NUM4); assay: FACS HEK+huTMEM 10 ug/ml
human TMEM106B (human) [10] = biological target: human TMEM106B (human) (UniProt Q9NUM4); assay: FACS HEK+huTMEM 0.1 ug/ml
human TMEM106B (human) [11] = biological target: human TMEM106B (human) (UniProt Q9NUM4); assay: FACS HEK+huTMEM 1.0 ug/ml
human TMEM106B (human) [12] = biological target: human TMEM106B (human) (UniProt Q9NUM4); assay: FACS, supernatant, hu-transfected HEK293
human TMEM106B (human) [13] = biological target: human TMEM106B (human) (UniProt Q9NUM4); assay: FACS HEK+huTMEM 0.1 ug/ml (2nd column so headed)

B1: TM-4 (antibody, V domains shown)
VH: EVQVQQSGPVLVKPGASVKMSCKASGYTFTDYYMNWVKQSHGKNLEWIGVINPYNGGTSYHQKFKGKATLTVDKSSSTAYMELNSLTSEDSAVYYCARAATVVAGFDYWGQGTTLTVSS
VL: QAVVTQESALTTSPGETVTLTCRSSTGAVTTSNYANWVQEKPDHLFTGLIGGTNNRAPGVPARFSGSLIGDKAALTITGAQTEDEAIYFCVLWYSNHLVFGGGTKLTVL
Human TMEM106B (human) [1]
  MFI: 916 MFI
Human TMEM106B (human) [2]
  MFI: 323 MFI
Human TMEM106B (human) [3]
  MFI: 349 MFI
Mouse TMEM106B (mouse) [4]
  MFI: 325 MFI
Human TMEM106B (human) [5]
  MFI: 373 MFI
Human TMEM106B (human) [6]
  MFI: 443 MFI
Human TMEM106B (human) [7]
  fold over parental HEK293: 1.13 fold
Mouse TMEM106B (mouse) [8]
  fold over parental HEK293: 1.97 fold
Human TMEM106B (human) [9]
  MFI: 846 MFI
Human TMEM106B (human) [10]
  MFI: 304 MFI
Human TMEM106B (human) [11]
  MFI: 415 MFI
Human TMEM106B (human) [12]
  fold over negative controls: > 2 fold
Human TMEM106B (human) [13]
  MFI: 282 MFI
